B1: sp¦Q8N5K1¦CISD2_HUMAN (protein, UniProt Q8N5K1 2-135, looked up)
CDGSH iron-sulfur …: VLESVARIVKVQLPAYLKRLPVPESITGFARLTVSEWLRLLPFLGVLALLGYLAVRPFLPKKKQQKDSLINLKIQKENPKVVNEINIEDLCLTKAAYCRCWRSKTFPACDGSHNKHNELTGDNVGPLILKKKEV
B2: sp¦Q9UL25¦RAB21_HUMAN (protein, UniProt Q9UL25 2-222, looked up)
Ras-related protein Rab-21: AAAGGGGGGAAAAGRAYSFKVVLLGEGCVGKTSLVLRYCENKFNDKHITTLQASFLTKKLNIGGKRVNLAIWDTAGQERFHALGPIYYRDSNGAILVYDITDEDSFQKVKNWVKELRKMLGNEICLCIVGNKIDLEKERHVSIQEAESYAESVGAKHYHTSAKQNKGIEELFLDLCKRMIETAQVDERAKGNGSSQPGTARRGVQIIDDEPQAQTSGGGCC
B3: sp¦O43592¦XPOT_HUMAN (protein, UniProt O43592 1-962, looked up)
Exportin-T: MDEQALLGLNPNADSDFRQRALAYFEQLKISPDAWQVCAEALAQRTYSDDHVKFFCFQVLEHQVKYKYSELTTVQQQLIRETLISWLQAQMLNPQPEKTFIRNKAAQVFALLFVTEYLTKWPKFFFDILSVVDLNPRGVDLYLRILMAIDSELVDRDVVHTSEEARRNTLIKDTMREQCIPNLVESWYQILQNYQFTNSEVTCQCLEVVGAYVSWIDLSLIANDRFINMLLGHMSIEVLREEACDCLFEVVNKGMDPVDKMKLVESLCQVLQSAGFFSIDQEEDVDFLARFSKLVNGMGQSLIVSWSKLIKNGDIKNAQEALQAIETKVALMLQLLIHEDDDISSNIIGFCYDYLHILKQLTVLSDQQKANVEAIMLAVMKKLTYDEEYNFENEGEDEAMFVEYRKQLKLLLDRLAQVSPELLLASVRRVFSSTLQNWQTTRFMEVEVAIRLLYMLAEALPVSHGAHFSGDVSKASALQDMMRTLVTSGVSSYQHTSVTLEFFETVVRYEKFFTVEPQHIPCVLMAFLDHRGLRHSSAKVRSRTAYLFSRFVKSLNKQMNPFIEDILNRIQDLLELSPPENGHQSLLSSDDQLFIYETAGVLIVNSEYPAERKQALMRNLLTPLMEKFKILLEKLMLAQDEERQASLADCLNHAVGFASRTSKAFSNKQTVKQCGCSEVYLDCLQTFLPALSCPLQKDILRSGVRTFLHRMIICLEEEVLPFIPSASEHMLKDCEAKDLQEFIPLINQITAKFKIQVSPFLQQMFMPLLHAIFEVLLRPAEENDQSAALEKQMLRRSYFAFLQTVTGSGMSEVIANQGAENVERVLVTVIQGAVEYPDPIAQKTCFIILSKLVELWGGKDGPVGFADFVYKHIVPACFLAPLKQTFDLADAQTVLALSECAVTLKTIHLKRGPECVQYLQQEYLPSLQVAPEIIQEFCQALQQPDAKVFKNYLKVFFQRAKP
B4: sp¦P04899¦GNAI2_HUMAN (protein, UniProt P04899 2-355, looked up)
Guanine nucleotide-binding …: GCTVSAEDKAAAERSKMIDKNLREDGEKAAREVKLLLLGAGESGKSTIVKQMKIIHEDGYSEEECRQYRAVVYSNTIQSIMAIVKAMGNLQIDFADPSRADDARQLFALSCTAEEQGVLPDDLSGVIRRLWADHGVQACFGRSREYQLNDSAAYYLNDLERIAQSDYIPTQQDVLRTRVKTTGIVETHFTFKDLHFKMFDVGGQRSERKKWIHCFEGVTAIIFCVALSAYDLVLAEDEEMNRMHESMKLFDSICNNKWFTDTSIILFLNKKDLFEEKITHSPLTICFPEYTGANKYDEAASYIQSKFEDLNKRKDTKEIYTHFTCATDTKNVQFVFDAVTDVIIKNNLKDCGLF
B5: sp¦P27824¦CALX_HUMAN (protein, UniProt P27824 21-592, looked up)
Calnexin: HDGHDDDVIDIEDDLDDVIEEVEDSKPDTTAPPSSPKVTYKAPVPTGEVYFADSFDRGTLSGWILSKAKKDDTDDEIAKYDGKWEVEEMKESKLPGDKGLVLMSRAKHHAISAKLNKPFLFDTKPLIVQYEVNFQNGIECGGAYVKLLSKTPELNLDQFHDKTPYTIMFGPDKCGEDYKLHFIFRHKNPKTGIYEEKHAKRPDADLKTYFTDKKTHLYTLILNPDNSFEILVDQSVVNSGNLLNDMTPPVNPSREIEDPEDRKPEDWDERPKIPDPEAVKPDDWDEDAPAKIPDEEATKPEGWLDDEPEYVPDPDAEKPEDWDEDMDGEWEAPQIANPRCESAPGCGVWQRPVIDNPNYKGKWKPPMIDNPSYQGIWKPRKIPNPDFFEDLEPFRMTPFSAIGLELWSMTSDIFFDNFIICADRRIVDDWANDGWGLKKAADGAAEPGVVGQMIEAAEERPWLWVVYILTVALPVFLVILFCCSGKKQTSGMEYKKTDAPQPDVKEEEEEKEEEKDKGDEEEEGEEKLEEKQKSDAEEDGGTVSQEEEDRKPKAEEDEILNRSPRNRKPRRE
B6: sp¦Q15397¦PUM3_HUMAN (protein, UniProt Q15397 1-648, looked up)
Pumilio homolog 3: MEVKGKKQFTGKSTKTAQEKNRFHKNSDSGSSKTFPTRKVAKEGGPKVTSRNFEKSITKLGKKGVKQFKNKQQGDKSPKNKFQPANKFNKKRKFQPDGRSDESAAKKPKWDDFKKKKKELKQSRQLSDKTNYDIVVRAKQMWEILRRKDCDKEKRVKLMSDLQKLIQGKIKTIAFAHDSTRVIQCYIQYGNEEQRKQAFEELRDDLVELSKAKYSRNIVKKFLMYGSKPQIAEIIRSFKGHVRKMLRHAEASAIVEYAYNDKAILEQRNMLTEELYGNTFQLYKSADHRTLDKVLEVQPEKLELIMDEMKQILTPMAQKEAVIKHSLVHKVFLDFFTYAPPKLRSEMIEAIREAVVYLAHTHDGARVAMHCLWHGTPKDRKVIVKTMKTYVEKVANGQYSHLVLLAAFDCIDDTKLVKQIIISEIISSLPSIVNDKYGRKVLLYLLSPRDPAHTVREIIEVLQKGDGNAHSKKDTEVRRRELLESISPALLSYLQEHAQEVVLDKSACVLVSDILGSATGDVQPTMNAIASLAATGLHPGGKDGELHIAEHPAGHLVLKWLIEQDKKMKENGREGCFAKTLVEHVGMKNLKSWASVNRGAIILSSLLQSCDLEVANKVKAALKSLIPTLEKTKSTSKGIEILLEKLST
B7: sp¦Q13464¦ROCK1_HUMAN (protein, UniProt Q13464 2-1354, looked up)
Rho-associated protein kinase …: STGDSFETRFEKMDNLLRDPKSEVNSDCLLDGLDALVYDLDFPALRKNKNIDNFLSRYKDTINKIRDLRMKAEDYEVVKVIGRGAFGEVQLVRHKSTRKVYAMKLLSKFEMIKRSDSAFFWEERDIMAFANSPWVVQLFYAFQDDRYLYMVMEYMPGGDLVNLMSNYDVPEKWARFYTAEVVLALDAIHSMGFIHRDVKPDNMLLDKSGHLKLADFGTCMKMNKEGMVRCDTAVGTPDYISPEVLKSQGGDGYYGRECDWWSVGVFLYEMLVGDTPFYADSLVGTYSKIMNHKNSLTFPDDNDISKEAKNLICAFLTDREVRLGRNGVEEIKRHLFFKNDQWAWETLRDTVAPVVPDLSSDIDTSNFDDLEEDKGEEETFPIPKAFVGNQLPFVGFTYYSNRRYLSSANPNDNRTSSNADKSLQESLQKTIYKLEEQLHNEMQLKDEMEQKCRTSNIKLDKIMKELDEEGNQRRNLESTVSQIEKEKMLLQHRINEYQRKAEQENEKRRNVENEVSTLKDQLEDLKKVSQNSQLANEKLSQLQKQLEEANDLLRTESDTAVRLRKSHTEMSKSISQLESLNRELQERNRILENSKSQTDKDYYQLQAILEAERRDRGHDSEMIGDLQARITSLQEEVKHLKHNLEKVEGERKEAQDMLNHSEKEKNNLEIDLNYKLKSLQQRLEQEVNEHKVTKARLTDKHQSIEEAKSVAMCEMEKKLKEEREAREKAENRVVQIEKQCSMLDVDLKQSQQKLEHLTGNKERMEDEVKNLTLQLEQESNKRLLLQNELKTQAFEADNLKGLEKQMKQEINTLLEAKRLLEFELAQLTKQYRGNEGQMRELQDQLEAEQYFSTLYKTQVKELKEEIEEKNRENLKKIQELQNEKETLATQLDLAETKAESEQLARGLLEEQYFELTQESKKAASRNRQEITDKDHTVSRLEEANSMLTKDIEILRRENEELTEKMKKAEEEYKLEKEEEISNLKAAFEKNINTERTLKTQAVNKLAEIMNRKDFKIDRKKANTQDLRKKEKENRKLQLELNQEREKFNQMVVKHQKELNDMQAQLVEECAHRNELQMQLASKESDIEQLRAKLLDLSDSTSVASFPSADETDGNLPESRIEGWLSVPNRGNIKRYGWKKQYVVVSSKKILFYNDEQDKEQSNPSMVLDIDKLFHVRPVTQGDVYRAETEEIPKIFQILYANEGECRKDVEMEPVQQAEKTNFQNHKGHEFIPTLYHFPANCDACAKPLWHVFKPPPALECRRCHVKCHRDHLDKKEDLICPCKVSYDVTSARDMLLLACSQDEQKKWVTHLVKKIPKNPPSGFVRASPRTLSTRSTANQSFRKVVKNTSGKTS
B8: sp¦Q14683¦SMC1A_HUMAN (protein, UniProt Q14683 1-1233, looked up)
Structural maintenance of …: MGFLKLIEIENFKSYKGRQIIGPFQRFTAIIGPNGSGKSNLMDAISFVLGEKTSNLRVKTLRDLIHGAPVGKPAANRAFVSMVYSEEGAEDRTFARVIVGGSSEYKINNKVVQLHEYSEELEKLGILIKARNFLVFQGAVESIAMKNPKERTALFEEISRSGELAQEYDKRKKEMVKAEEDTQFNYHRKKNIAAERKEAKQEKEEADRYQRLKDEVVRAQVQLQLFKLYHNEVEIEKLNKELASKNKEIEKDKKRMDKVEDELKEKKKELGKMMREQQQIEKEIKEKDSELNQKRPQYIKAKENTSHKIKKLEAAKKSLQNAQKHYKKRKGDMDELEKEMLSVEKARQEFEERMEEESQSQGRDLTLEENQVKKYHRLKEEASKRAATLAQELEKFNRDQKADQDRLDLEERKKVETEAKIKQKLREIEENQKRIEKLEEYITTSKQSLEEQKKLEGELTEEVEMAKRRIDEINKELNQVMEQLGDARIDRQESSRQQRKAEIMESIKRLYPGSVYGRLIDLCQPTQKKYQIAVTKVLGKNMDAIIVDSEKTGRDCIQYIKEQRGEPETFLPLDYLEVKPTDEKLRELKGAKLVIDVIRYEPPHIKKALQYACGNALVCDNVEDARRIAFGGHQRHKTVALDGTLFQKSGVISGGASDLKAKARRWDEKAVDKLKEKKERLTEELKEQMKAKRKEAELRQVQSQAHGLQMRLKYSQSDLEQTKTRHLALNLQEKSKLESELANFGPRINDIKRIIQSREREMKDLKEKMNQVEDEVFEEFCREIGVRNIREFEEEKVKRQNEIAKKRLEFENQKTRLGIQLDFEKNQLKEDQDKVHMWEQTVKKDENEIEKLKKEEQRHMKIIDETMAQLQDLKNQHLAKKSEVNDKNHEMEEIRKKLGGANKEMTHLQKEVTAIETKLEQKRSDRHNLLQACKMQDIKLPLSKGTMDDISQEEGSSQGEDSVSGSQRISSIYAREALIEIDYGDLCEDLKDAQAEEEIKQEMNTLQQKLNEQQSVLQRIAAPNMKAMEKLESVRDKFQETSDEFEAARKRAKKAKQAFEQIKKERFDRFNACFESVATNIDEIYKALSRNSSAQAFLGPENPEEPYLDGINYNCVAPGKRFRPMDNLSGGEKTVAALALLFAIHSYKPAPFFVLDEIDAALDNTNIGKVANYIKEQSTCNFQAIVISLKEEFYTKAESLIGVYPEQGDCVISKVLTFDLTKYPDANPNPNEQ

What follows are molecules tested on human HL60 cells (assay: SWATH-MS proteomics, differential protein representation, akirin2 KO vs WT HL60 cells). Details: KO vs WT; akirin2 KO vs WT HL60 cells; sheet "Under-represented in KO".
Assay type: cell-based
Procedure, shortened: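 First, proteins from wild-type and knockout cells are digested with trypsin by FASP. Next, pooled IDA runs generate a reference ion library. Then six samples of 5 µg each are acquired by data-independent SWATH, and protein areas are normalized to the summed area of all detected proteins.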

Point of comparison: B6, “Fold Change” value 0.6182. Against it:
- B1 — lower, 0.6126
- B2 — lower, 0.6117
- B3 — lower, 0.6107
- B4 — lower, 0.61
- B5 — lower, 0.6087
- B7 — lower, 0.6099

Point of comparison: B2, “Log (Fold Change)” value -0.2135. Against it:
- B1 — within 0.2 log units, -0.2128
- B3 — within 0.2 log units, -0.2142
- B4 — within 0.2 log units, -0.2146
- B5 — within 0.2 log units, -0.2156
- B6 — within 0.2 log units, -0.2089
- B7 — within 0.2 log units, -0.2148

Same assay, conditions: akirin2 KO vs WT HL60 cells; sheet "Under-represented in KO"

With B8 the “Fold Change” value was 0.2754.

With B8 the “Log (Fold Change)” value was -0.5601.
